Measurements reported in patent publication US20200040059A1.

Tests used:
[1] = target: PD-1 (Homo sapiens (Human)) (UniProt Q15116); experiment: flow cytometry, Jurkat/PD-1 cells
[2] = target: PD-1 (Homo sapiens (Human)) (UniProt Q15116); experiment: flow cytometry, Jurkat/PD-1 cells; vs wildtype PD-L2 IgV-Fc

PD-1 (Homo sapiens (Human)), sequence (Q15116 21-288 limits assumed): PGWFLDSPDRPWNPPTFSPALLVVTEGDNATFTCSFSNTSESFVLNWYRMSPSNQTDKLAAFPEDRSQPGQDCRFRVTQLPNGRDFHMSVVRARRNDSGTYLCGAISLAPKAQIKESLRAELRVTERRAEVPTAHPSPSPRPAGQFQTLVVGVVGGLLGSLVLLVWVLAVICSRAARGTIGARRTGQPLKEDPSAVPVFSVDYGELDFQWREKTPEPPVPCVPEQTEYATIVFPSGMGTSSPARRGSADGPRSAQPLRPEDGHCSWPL

Binder	MFI at 50 nM [1]	Fold increase over wildtype PD-L2 IgV-Fc [2]
variant PD-L2 IgV-Fc H15Q (Fc fusion, not shown: a dimerising Fc or GST; small tags and cut ends) FTVTVPKELYIIEQGSNVTLECNFDTGSHVNLGAITASLQKVENDTSPHRERATLLEEQLPLGKASFHIPQVQVRDEGQYQCIIIYGVAWDYKYLTLK	16000	1.63 fold
variant PD-L2 IgV-Fc H15Q, Q72H, Q74R, R76G, I86T (Fc fusion, not shown: a dimerising Fc or GST; small tags and cut ends) FTVTVPKELYIIEQGSNVTLECNFDTGSHVNLGAITASLQKVENDTSPHRERATLLEEQLPLGKASFHIPHVRVGDEGQYQCIITYGVAWDYKYLTLK	4050	0.41 fold
variant PD-L2 IgV-Fc G28V, Q72H, R76G, I86T (Fc fusion, not shown: a dimerising Fc or GST; small tags and cut ends) FTVTVPKELYIIEHGSNVTLECNFDTVSHVNLGAITASLQKVENDTSPHRERATLLEEQLPLGKASFHIPHVQVGDEGQYQCIITYGVAWDYKYLTLK	5560	0.57 fold
variant PD-L2 IgV-Fc H15Q, S67L, Q72H, R76G, V89D (Fc fusion, not shown: a dimerising Fc or GST; small tags and cut ends) LFTVTVPKELYIIEQGSNVTLECNFDTGSHVNLGAITASLQKVENDTSPHRERATLLEEQLPLGKALFHIPHVQVGDEGQYQCIIIYGDAWDYKYLTLK	40200	4.08 fold
variant PD-L2 IgV-Fc H15Q, S67L, R76G, I85F (Fc fusion, not shown: a dimerising Fc or GST; small tags and cut ends) LFTVTVPKELYIIEQGSNVTLECNFDTGSHVNLGAITASLQKVENDTSPHRERATLLEEQLPLGKALFHIPQVQVGDEGQYQCIFIYGVAWDYKYLTLK	2870	0.29 fold
variant PD-L2 IgV-Fc H15Q, N32D, S67L, V89D (Fc fusion, not shown: a dimerising Fc or GST; small tags and cut ends) LFTVTVPKELYIIEQGSNVTLECNFDTGSHVDLGAITASLQKVENDTSPHRERATLLEEQLPLGKALFHIPQVQVRDEGQYQCIIIYGDAWDYKYLTLK	25900	2.63 fold
variant PD-L2 IgV-Fc H15Q, R76G, I85F (SEQ ID NO 1500) (Fc fusion, not shown: a dimerising Fc or GST; small tags and cut ends) LFTVTVPKELYIIEQGSNVTLECNFDTGSHVNLGAITASLQKVENDTSPHRERATLLEEQLPLGKASFHIPQVQVGDEGQYQCIFIYGVAWDYKYLTLK	2940	0.3 fold
variant PD-L2 IgV-Fc H15Q, S67L, R76G (Fc fusion, not shown: a dimerising Fc or GST; small tags and cut ends) LFTVTVPKELYIIEQGSNVTLECNFDTGSHVNLGAITASLQKVENDTSPHRERATLLEEQLPLGKALFHIPQVQVGDEGQYQCIIIYGVAWDYKYLTLK	47200	4.8 fold
variant PD-L2 IgV-Fc H15Q, T47A, Q72H, R76G (Fc fusion, not shown: a dimerising Fc or GST; small tags and cut ends) LFTVTVPKELYIIEQGSNVTLECNFDTGSHVNLGAITASLQKVENDASPHRERATLLEEQLPLGKASFHIPHVQVGDEGQYQCIIIYGVAWDYKYLTLK	16500	1.68 fold
variant PD-L2 IgV-Fc H15Q, T47A, Q72H, R76G, I86T (Fc fusion, not shown: a dimerising Fc or GST; small tags and cut ends) LFTVTVPKELYIIEQGSNVTLECNFDTGSHVNLGAITASLQKVENDASPHRERATLLEEQLPLGKASFHIPHVQVGDEGQYQCIITYGVAWDYKYLTLK	32100	3.26 fold
variant PD-L2 IgV-Fc E44D (Fc fusion, not shown: a dimerising Fc or GST; small tags and cut ends) LFTVTVPKELYIIEHGSNVTLECNFDTGSHVNLGAITASLQKVDNDTSPHRERATLLEEQLPLGKASFHIPQVQVRDEGQYQCIIIYGVAWDYKYLTLK	2930	0.3 fold
variant PD-L2 IgV-Fc H15Q, S39I, S67L, V89D (Fc fusion, not shown: a dimerising Fc or GST; small tags and cut ends) LFTVTVPKELYIIEQGSNVTLECNFDTGSHVNLGAITAILQKVENDTSPHRERATLLEEQLPLGKALFHIPQVQVRDEGQYQCIIIYGDAWDYKYLTLK	45500	4.62 fold
variant PD-L2 IgV-Fc E59G, Q82R (Fc fusion, not shown: a dimerising Fc or GST; small tags and cut ends) LFTVTVPKELYIIEHGSNVTLECNFDTGSHVNLGAITASLQKVENDTSPHRERATLLEGQLPLGKASFHIPQVQVRDEGQYRCIIIYGVAWDYKYLTLK	12700	1.29 fold
variant PD-L2 IgV-Fc H15Q, Q72H, V89D (Fc fusion, not shown: a dimerising Fc or GST; small tags and cut ends) LFTVTVPKELYIIEQGSNVTLECNFDTGSHVNLGAITASLQKVENDTSPHRERATLLEEQLPLGKASFHIPHVQVRDEGQYQCIIIYGDAWDYKYLTLK	12600	1.28 fold
variant PD-L2 IgV-Fc H15Q, T47A, Q82R (Fc fusion, not shown: a dimerising Fc or GST; small tags and cut ends) LFTVTVPKELYIIEQGSNVTLECNFDTGSHVNLGAITASLQKVENDASPHRERATLLEEQLPLGKASFHIPQVQVRDEGQYRCIIIYGVAWDYKYLTLK	65200	6.62 fold
variant PD-L2 IgV-Fc H15Q, E44D, R76G, I85F (Fc fusion, not shown: a dimerising Fc or GST; small tags and cut ends) LFTVTVPKELYIIEQGSNVTLECNFDTGSHVNLGAITASLQKVDNDTSPHRERATLLEEQLPLGKASFHIPQVQVGDEGQYQCIFIYGVAWDYKYLTLK	2880	0.29 fold
variant PD-L2 IgV-Fc I13V, H15Q, E44D, V89D (Fc fusion, not shown: a dimerising Fc or GST; small tags and cut ends) LFTVTVPKELYIVEQGSNVTLECNFDTGSHVNLGAITASLQKVDNDTSPHRERATLLEEQLPLGKASFHIPQVQVRDEGQYQCIIIYGDAWDYKYLTLK	24000	2.43 fold
variant PD-L2 IgV-Fc H15Q, K65R (Fc fusion, not shown: a dimerising Fc or GST; small tags and cut ends) LFTVTVPKELYIIEQGSNVTLECNFDTGSHVNLGAITASLQKVENDTSPHRERATLLEEQLPLGRASFHIPQVQVRDEGQYQCIIIYGVAWDYKYLTLK	13500	1.37 fold
variant PD-L2 IgV-Fc I13V, E44D, Q82R, V89D (Fc fusion, not shown: a dimerising Fc or GST; small tags and cut ends) LFTVTVPKELYIVEHGSNVTLECNFDTGSHVNLGAITASLQKVDNDTSPHRERATLLEEQLPLGKASFHIPQVQVRDEGQYRCIIIYGDAWDYKYLTLK	45200	4.59 fold

More lines, now with the values ahead:

MFI at 50 nM [1]	Fold increase over wildtype PD-L2 IgV-Fc [2]	Binder
63500	6.45 fold	variant PD-L2 IgV-Fc I13V, H15Q, S39I, E44D, S67L (Fc fusion, not shown: a dimerising Fc or GST; small tags and cut ends) FTVTVPKELYIVEQGSNVTLECNFDTGSHVNLGAITAILQKVDNDTSPHRERATLLEEQLPLGKALFHIPQVQVRDEGQYQCIIIYGVAWDYKYLTLK
1410	0.14 fold	variant PD-L2 IgV-Fc N24D (Fc fusion, not shown: a dimerising Fc or GST; small tags and cut ends) LFTVTVPKELYIIEHGSNVTLECDFDTGSHVNLGAITASLQKVENDTSPHRERATLLEEQLPLGKASFHIPQVQVRDEGQYQCIIIYGVAWDYKYLTLK
529	0.05 fold	variant PD-L2 IgV-Fc S67L, I85F (Fc fusion, not shown: a dimerising Fc or GST; small tags and cut ends) LFTVTVPKELYIIEHGSNVTLECNFDTGSHVNLGAITASLQKVENDTSPHRERATLLEEQLPLGKALFHIPQVQVRDEGQYQCIFIYGVAWDYKYLTLK
71400	7.26 fold	variant PD-L2 IgV-Fc I13V, S39I, E44D, Q82R, V89D (Fc fusion, not shown: a dimerising Fc or GST; small tags and cut ends) LFTVTVPKELYIVEHGSNVTLECNFDTGSHVNLGAITAILQKVDNDTSPHRERATLLEEQLPLGKASFHIPQVQVRDEGQYRCIIIYGDAWDYKYLTLK
10400	1.06 fold	variant PD-L2 IgV-Fc I13V, Q72H, R76G, I86T (Fc fusion, not shown: a dimerising Fc or GST; small tags and cut ends) LFTVTVPKELYIVEHGSNVTLECNFDTGSHVNLGAITASLQKVENDTSPHRERATLLEEQLPLGKASFHIPHVQVGDEGQYQCIITYGVAWDYKYLTLK
21600	2.19 fold	variant PD-L2 IgV-Fc I13V, H15Q, S67L, I86T (Fc fusion, not shown: a dimerising Fc or GST; small tags and cut ends) LFTVTVPKELYIVEQGSNVTLECNFDTGSHVNLGAITASLQKVENDTSPHRERATLLEEQLPLGKALFHIPQVQVRDEGQYQCIITYGVAWDYKYLTLK
3360	0.34 fold	variant PD-L2 IgV-Fc V89D (Fc fusion, not shown: a dimerising Fc or GST; small tags and cut ends) LFTVTVPKELYIIEHGSNVTLECNFDTGSHVNLGAITASLQKVENDTSPHRERATLLEEQLPLGKASFHIPQVQVRDEGQYQCIIIYGDAWDYKYLTLK
4740	0.48 fold	variant PD-L2 IgV-Fc I13V, H15Q, R76G, I85F (Fc fusion, not shown: a dimerising Fc or GST; small tags and cut ends) LFTVTVPKELYIVEQGSNVTLECNFDTGSHVNLGAITASLQKVENDTSPHRERATLLEEQLPLGKASFHIPQVQVGDEGQYQCIFIYGVAWDYKYLTLK
31800	3.23 fold	variant PD-L2 IgV-Fc N32D, S67L, V89D (Fc fusion, not shown: a dimerising Fc or GST; small tags and cut ends) LFTVTVPKELYIIEHGSNVTLECNFDTGSHVDLGAITASLQKVENDTSPHRERATLLEEQLPLGKALFHIPQVQVRDEGQYQCIIIYGDAWDYKYLTLK
26100	2.65 fold	variant PD-L2 IgV-Fc S39I, V89D (Fc fusion, not shown: a dimerising Fc or GST; small tags and cut ends) LFTVTVPKELYIIEHGSNVTLECNFDTGSHVNLGAITAILQKVENDTSPHRERATLLEEQLPLGKASFHIPQVQVRDEGQYQCIIIYGDAWDYKYLTLK
6830	0.69 fold	variant PD-L2 IgV-Fc S67L, I86T (Fc fusion, not shown: a dimerising Fc or GST; small tags and cut ends) LFTVTVPKELYIIEHGSNVTLECNFDTGSHVNLGAITASLQKVENDTSPHRERATLLEEQLPLGKALFHIPQVQVRDEGQYQCIITYGVAWDYKYLTLK
16000	1.62 fold	variant PD-L2 IgV-Fc S67L, V89D (Fc fusion, not shown: a dimerising Fc or GST; small tags and cut ends) LFTVTVPKELYIIEHGSNVTLECNFDTGSHVNLGAITASLQKVENDTSPHRERATLLEEQLPLGKALFHIPQVQVRDEGQYQCIIIYGDAWDYKYLTLK
45000	4.57 fold	variant PD-L2 IgV-Fc Q82R, V89D (Fc fusion, not shown: a dimerising Fc or GST; small tags and cut ends) LFTVTVPKELYIIEHGSNVTLECNFDTGSHVNLGAITASLQKVENDTSPHRERATLLEEQLPLGKASFHIPQVQVRDEGQYRCIIIYGDAWDYKYLTLK
73400	7.46 fold	variant PD-L2 IgV-Fc I13V, H15Q, T47A, Q72H, R76G (Fc fusion, not shown: a dimerising Fc or GST; small tags and cut ends) LFTVTVPKELYIVEQGSNVTLECNFDTGSHVNLGAITASLQKVENDASPHRERATLLEEQLPLGKASFHIPHVQVGDEGQYQCIIIYGVAWDYKYLTLK
